Data: publication PMC2187453

Target: TCGF receptor on B6.1 cells (mouse CTL line B6.1.SF.1) (mouse (endogenous in the B6.1 CTL line))
Test: radioligand binding

Sequence of T cell growth factor (TCGF), human, biosynthetically radiolabeled (3H-TCGF) (P60568 21-153): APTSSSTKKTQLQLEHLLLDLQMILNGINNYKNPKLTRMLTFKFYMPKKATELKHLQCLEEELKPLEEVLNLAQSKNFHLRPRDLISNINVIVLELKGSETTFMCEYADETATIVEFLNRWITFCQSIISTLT

Kd: 0.022 nM
Sequence: T cell growth factor (TCGF), human, biosynthetically radiolabeled (3H-TCGF) (from UniProt P60568 21-153) (ligand)
